In a protein production outcome set (Wang et al. 2014):

Test: label from the status in PepcDB records
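Also: failed if final PepcDB status was selected cloned or expressed and not failed if soluble or beyond.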

Row | Sequence | protein production
1 | MNMLALTILLPLIGFVLLAFSRGRWSENLSATVGMGSVGLAALVTAYVGVDFFANGKQAVSVPLWTWMSVGDFNIGFNLVLDGLSLTMLSVVTGVGFLIHMFASWYMRGEEGYSRFFAYTNLFIASMVVLVLADNLLLMYLGWEGVGLCSYLLIGFYYTDPKNGAAAMKAFVVTRVGDVFLAFALFILYNELGTLNFREMVELAPQHFANGSTTLQWATLMLLGGAVGKSAQLPLQTWLADAMAGPTPVSALIHAATMVTAGVYLIARTHGLFLMTPEVLHLVGIVGAVTLVLAGFAALVQTDIKRVLAYSTMSQIGYMFLALGVQAWDAAIFHLMTHAFFKALLFLSSGSVILACHHEQNIFKMGGLRKSIPLVYVCFLVGGAALSALPLITAGFFSKDEILAGAMANGHINLMVAGLVGAFMTSLYTFRMIFIVFHGKEQIHAHAGKGITHHLPLIVLLVLSTFVGALIVPPLEGVLPQTTELAHGSVMTLEIASGIIAIAGILIAAWLWLGKRTLVTSIANSAPGRFFGTWWFHAWGFDWLYDKVFVKPFLGIAWLLKRDPLNSLMNIPAILSRFAGKGLLVSENGYLRWYVASMSIGAVVVLALLMVLR | failed
2 | MRQATMDFSSSSVFDQHKGDSSEEVDLTMVYQAASNGDVNSLTAVIREDPSILECCDSEGCTPLMHAVSGRQVDTVKLLLKMGANINTQDAYGRTSLCLATYLGWLEGCVSLLRNGAKHNIPDKNGRLPLHAATAEPDVRLLIVLLQQSSLSEINHQDTEGMTPLHWAAFHNRPQHTQMLLKKGADPTLVDKDFKTALHWAVQYGRSRVACQDVLGHAQGPGRASQETTISVSCQHALLGISNIYNKAGRITEASSQQLTSDFRTPLHWAAAAGKAECVQSLLDLGMDSNLRDINESTPLAYALYCGHTACVRLLSREGRAEPARPLPSQNSQPQKKEGRFSVLNQIFCKNKKEEQKAHQKEQSRARPKEEDTSEVNDIIATFDSVVDTNCQDQPGDQVDMVVFKKRTSENSKYLLPEKKSLARKGLPPIRTQSLPPITLGSNFLTASHGATSHAGLNSGLQHTAQRSQKSRSEQDLLNNRTGCQVSLDNPWKGDTRQAFSCKAWTVSSSDKLLDRMFTGQPGHQELSGPPHLPHLPNPSPGQGLQHLSPNRPKVRDFPFTRNSLAPLPDQKFLSGEPLRTNRVLPAIPSQRGHDPPAEESEWSSSPTHDEN | failed
3 | MVKGDITTAFIAEEYPDGFQGAVLDEPTLRRVAAAAAAMNRVAEIRRTRISGTMNNHERHVGVDWVVALQGESYHVSIAADREGSTVSFSDGSSLRVTSDWTPGQPLEHHHHHH | failed
4 | ILARTKIFPWFFDLKRNKMLIDAHWFSYLGIPAGDCEITIEKFFSRVHPNERDMLADALQKQLSEKEIPDSFSYRLQRGDGSWEWFSEQSMYLSKTNDGSPYRIVGVCHSIQEHKNT | failed
5 | MINQNATYMEESAQSAVDNFGLGFNLGNTLDANGCGTGKPVATYETFWGQPETTQDMMTFLMQNGFNAVRIPVTWYEHMDAEGNVDEAWMMRVKAIVEYAMNAGLYAIVNVHHDTAAGSGAWIKADTDVYAATKEKFKKLWTQIANALADYDQHLLFEGYNEMLDGNNSWDEPQKASGYEALNNYAQDFVDAVRATGGNNATRNLIVNTYAAAKGENVLNNFMLPTDAVNNHLIVQVHSYDPWNFFNTKTTWDSECHNTLTEIFSALSKKFTTIPYIIGEYGTHGESDISVSKSSPAEKIKLAADQAADMVKLAKDHHSATFYWMSIFDGSDRIQPQWSLPTVVEAMQEAYNN | not failed
6 | WYEDGLVCTLAYQNHRAPLVFIIAGTGASHNTPRMVKLRSALYQGGFHVISLTSPTHMDFVVNASSGLPGDPLDDARDLYRVMEMAYDAVRDTIDVSGFDLAGYSLGAFNAAFVARLDEEEKRFNFSKVLLINPPVSLYESVAALDQLLVENVPQGMEQFDAWFRSVFAEFSHVSREVGPGSLSGDFIYSAYKRFPPNEENLAALIGLSFRMSAANMIFTADVMNGGGYIVPRNARLTATSSLTRYATVSLHTRFTDYFDEWFFPNRRHREPSLTRQALLARMSLRSQEAYLRNADKVGLIHNEDDIILAPGDIDYLQGVFGGRARLFPTGGHMGNMFHPDVVSFMIDFL | failed
7 | MVKKSYVINWARDLANRGVGVNYDGAFGSQCVDLPFWILGKFFGRPISGNAIDLLNSAKAAGYQVIYDAPGVNPRVGDIFVMHSIAYDGKDYGHTGLVIEDSDGHSIKTIEQNVDGNADNLYVGGPARYRTRSFNGIIGWIRPPYENEILENKREETDMRDFFVITNSEYTFAGVHYAKGAVLHVSPTQKRAFWVIADQENFIKQVNKNIEYVEKNASPAFLQRIVEIYQVKFEGKNVH | not failed
8 | MGALLPRGQASRPRTRHGRSPQNDRRQEARDVTGRHLAMVQRPGKMARWVLCCECLRRPMDLTLRLATALLTASLLLPLRPAQAQLAGHGGPVRAIAVSSDGKTVLSGSFDTAAIRWSLATESAEQVLRFHSGAVNAAAFLGDGRMATAGADGQIAIWTAGGLQPDQVLEGHTGPIVGLVVSPDTSKLASASWDHTVRISSLSDGGTRVLQGHSQSVNGVAFAPDGKSLVSVGYDLTVRIWPLAGGSPEIVVMPAPLNAVAISPDGEIVTGAADGKLRMMTADGKENGEVMAGARPIVALAISQDGALIATGAIDGTVAIVDRKARSVMRTLAGLGAPVWSVAFLPDGATLLTGGADGKIRRWNALTGAAIGSNVLGTPADPLAAYVGDHGAEMFRACVACHTLSENEVQRAGPTLAGLFGRKIASLPGYRFTDALKAMDIVWTPETVSKLFEIGPNAYTPGTKMPEQRIGSAEDRRALTDFLARATSK | failed
9 | MDGALRNRSARVVDSEHRTHPPGIRRSVCWSLLALDSRLHGRTSTQDRQVGCGRLWCRPSEARCGAMKLLVTGGGGFLGQALCRGLRARGHEVVSFQRGNYPVLRSLGVGQIRGDLADPQAVRHALAGIDAVFHNAAKAGAWGSYDSYHQANVVGTQNVIEACRATGVPRLIYTSTPSVTHRATNPVEGLGADEVPYGDNLRAAYAATKAIAERAVLAANDAQLATVALRPRLIWGPGDNHLLPRLAARARAGRLRMVGDGSNLVDSTYIDNAAQAHFDAFEHLAVGAACAGKAYFISNGEPLPMRELLNRLLAAVDAPAVTRSLPFKTAYRIGAVCETLWPLLRLPGEVPLTRFLVEQLCTPHWYSMQPARRDFGYVPRISIEEGLQRLRSSSSNDIAITG | failed
10 | MAEEQEIVDSLSAEVNPDQKVDMEVETATPKAETGDEKREREETEEEENGGESKKQKVGEEEKSGPVKLGPKEFVTSVAMFDYFVKFLHFWPTDLDVNKYEHMVLLDLIKKGHSEPEKKIGGGIKTFQVRTHPMWKSRCFFLVREDDTADDFSFRKCVDQILPLPENMKTPGANGNGHGGGRGGGGGRRGGRGGGRGGRFRR | failed
11 | MKIALFGTSADPPTLAHRAILIWLAQHFDQVAVWAADNPFKQGPNPETGHWASLGDRQAMLKLLVEDVQKDYATVQIWEDLSDRRSLISLQRAQQRWGLEPDYALVVGADLIRQISQWYAVKELLPAVQLVIFPRPGYGINQADLDKLAQLGGHYQLVNQGDDQAITPPISSSIYRQIRDDDLIPDPVQSYIQQRQLYRQ | failed
12 | LAAMSIDLGSQFIKIGLVKPGVPMDIVLNKESRRKTPNVISFKNDERFFAEAAAAMSSSHPQSSYNFLLSMIARKEGDDAFVTFQKTFPFTAFEFDEVRKTVVFPYKEEKYNVETLLAMILWNAKKVTEAYADQTVKDVVITVPIFLNQAERRAIASAAEIAGLNLLQLLNDGSAAALNYGVFRRKEITEKPTHMLIYDMGAVKTTATIVQYVLESTRKDGKDKQPTLRTVGVGFDKTLGGLEITNRLRDHLEKVFRDTVKTSKDISTNARAIGKLHKEAERVKQVLSANKDTYAQVESLFEEQNFRAKVTREELEKMIEDLEPRIAAPILDAIGMAQISTNDIDLVVLMGAGTRVPKVKEILKTILKDKEISNFLNTDEAIAMGAVYQAAHLSKSFKVLPFNVHEKILYPVFVNFLTKTEEGTMKPIRKSLFGENYPVPNRVMHFSSYSDDFKIDIQDADKNPLSTVEISGVKDAIEKEVTDE | failed
13 | MIQLKNVGITLSGKGYERFSLENINLEVNGEKVIILGPNGSGKTTLLRAISGLLPYSGNIFINGMEVRKIRNYIRYSTNLPEAYEIGVTVNDIVYLYEELKGLDRDLFLEMLKALKLGEEILRRKLYKLSAGQSVLVRTSLALASQPEIVGLDEPFENVDAARRHVISRYIKEYGKEGILVTHELDMLNLYKEYKAYFLVGNRLQGPISVSELLESSIVEGERNDALLVLDIMDKKVSIVKGDLGMKFGALGSLNRIYGIIGA | not failed
14 | MGVATMVTDKYQKCIDACNRCSQACYECFKACLNEPDVNARRTCISILFECAQMCQMSSALMSMDAQFAIDHCKLCSVICDKCAQECSMFQDPHCQKCANECRTCSNECRMMSGMLEHHHHHH | not failed
15 | MEEPLRQESPTTFHAKTSDRGQIDLGISKHKTVAEAWEGYRQRRHRSTHLQAIETALLQQRNDRTEDEDIVLWKGKNDVYKPQFLTKETLNHMRTISMDVDWYKGVWFGHSTPKYSFCVWLAVLNRLSTGDRMTHWNGGQSAACVLCHNAPETRDHLFFSCDFASIVWSNLARGIYGDRFSTHWQDLIQAISGSWMTPLDSFFARYLFQATVHTIWRERNGRNHGEKPNSAALLIK | failed
16 | MAIKNAFYAQSGGVTAVINASACGVIQTARKHPDQIGKVYAGRNGIIGALKEELIDTSLESDDAIQALIHTPGGAFGSCRYKLKNISENQREYERLIEVFRAHDIGYFFYNGGGDSQDTAYKVSQLADRMGYPITCIGVPKTVDNDLPFTDCCPGFGSVAKYIATSTLEASLDIKSMCETSTKVFILEVMGRHAGWIAAAGGLAGQSEGEPPHVILFPEIPFNREKFLERVDQCVRDYGYCVVVASEGAQYEDGRFVADAGAKDAFGHTQLGGVAPALANMVKQALGHKYHWAVADYLQRAARHIASATDVEQAYAVGKAAVEMALAGKQALMPTIVRDQAKPYRWSIGEANLSEVANQEKKMPIHYITDNGFGITQDCRDYLQPLIAGESFPPFDDGLPRVAKLKNQLVEKKLRTEFELLEHHHHHH | failed
17 | MVANLVTVVIVNYNSGEMLGKCVEHLLKSTVPIQIIISDNASSDNSLALLEQSELNKQTITIHRNNSNYGFSYANNAVFTKISTPFILYLNPDCFVENDTIENLLHTMHQHNDAGMVGCLVNNMDGSVQIGCCGLTPTPARVLNQLLKLSKIFPNNSKFGGYLFSKEKLPTKPTEVELISGSCMFVRKKAIDEVGLLDDNYFLYCEDYDWFYRFTQSNWKIIFNPNTKVTHIKSFSTKQIPFKVLLYKAKGMWRFYNKFFKENSSPATTLIIRVGIIARFFSLSGLLLFKKLLRTTS | failed
18 | MRAFIAIDVSESVRDALVRAQDYIGSKEAKIKFVERENFHITLKFLGEITEEQAEEIKKILEKIAKKYKKHEVNVRGIGVFPNPNYVRVIWAGVENDEIIKKIAKEIDDELAKLGFKKEGNFVAHITLGRVKFVKDKLGLAMKLKELANEDFGSFIVEAIELKKSTLTPKGPIYETLARFELSE | not failed
19 | MKLAYWMYAGPAHIGTLRISSSFRNVHAIMHAPLGDDYFNVMRSMLERERNFTPVTTSVVDRNVLARGSQEKVIDNILRKDTEERPDLIVLTPTCTSSILQEDLQNFVERAKESAQCDVLLADVNHYRVNELQAADRTLEQIVRFYLDRAQRQGTLPSQRTEQPSVNILGMTTLGFHNRHDTTELQRLMADLGITVNAVIPAGASVEELQHLPRAWFNLVPYREVGLLTAQYLQDTFDQPMVAIAPMGITATADCIRQIQQVLNQQGAAVDFEPFIDRQTRFASEAAWFSHSIDCQNLTGKRAVVFGDNTHAAAFTKILSREMGIHVVLAGTYCKHDADWFEAEVAGYCDRVLISDDHNAIADAIAELEPAAIFGTQMERHVGKRLNIPCGVIAAPVHIQNFPVGYRPFVGYEGANQIVDLVYNSFTLGMEDHLLEIFGGHDTKEVLTKTVSAGSDLDWKPDGLTELNRIPGFVRGKVKRNTEKYAREQGLTAITAEVLYAAKEALGALEHHHHHH | not failed
20 | MSAESASQIPKGQVDLLDFIDWSGVECLNQSSSHSLPNALKQGYREDEGLNLESDADEQLLIYIPFNQVIKLHSFAIKGPEEEGPKTVKFFSNKEHMCFSNVNDFPPSDTAELTEENLKGKPVVLKYVKFQNVRSLTIFIEANQSGSEVTKVQKIALYGST | not failed
